In US20190352411A1 (ALLIGATOR BIOSCIENCE, published 2019):
Where two headings read alike, the source gives them in different places.

How the values were obtained:
[1] = molecular target: cynomolgus CD137 (Acro Biosystems #41B-C52H4) (cynomolgus, UniProt A9YYE7 24-186); assay: Octet (BLI), antibody amine-coupled to ARG2 biosensor, soluble CD137 as analyte, 1:1 model
Protocol: Materials and method CD137 affinity was determined using the Octet Red 96 platform (ForteBio). […] 7 2-fold serial dilutions of CD137 (Acro Biosystems #41B-H5227 and #41B-C52H4) from 100 nM was prepared in 1× kinetic buffer (ForteBio #18-1092). Association was measured for 180 s followed by dissociation for 180 s in 1× kinetic buffer. 10 mM Glycine pH 2.2 was used for regeneration.
Data generated was referenced by reference well subtraction (1188), the baseline was aligned with the y-axis, inter-step correlation by alignment against association was performed and the data was smoothed by a Savitzky-Golay filtering in the data analysis software (v.9.0.0.14). The processed data was fitted using a 1:1 Langmuir binding model with X² as a measurement of fitting accuracy.

[2] = molecular target: T1, human CD137 on transfected CHO cells (CHO-huCD137) (human); assay: flow cytometry on CHO-huCD137 cells; 95% confidence interval of the EC50
T1 construct: domain: transmembrane and intracellular part
Protocol: (§1) Binding and EC50 was determined using flow cytometric of CHO cells transfected with human CD137, cynomolgus CD137 or empty vector. The extracellular part of human or cynomolgus CD137 was fused to the transmembrane and intracellular part of human CD40 and cloned into pcDNA3.1. The vector was subsequently stably transfected into CHO cells. […] CD137-transfected and empty vector-transfected cells were incubated with CD137 antibodies for at least 1 h at 4° C. to saturate the binding. In order to minimize antibody internalization, 0.05% sodium azide was used in the incubation buffer and all work was performed on ice. The CD137 antibodies were detected using PE-conjugated anti-hIgG antibody (109-115-098, Jackson Immunoresearch laboratories), incubated for 30 min at 4° C. Directly after staining the cells were fixed with a paraformaldehyde solution (10× concentrate BD CellFIX, BD biosciences #340181). Cells were analyzed by flow cytometry using FACSVerse (BD Biosciences). The median fluorescence intensity (MFI) for each sample was determined and the dose response data was analysed using Graph Pad Prism.
(§2) MFI data was normalized for each antibody, where 0% is defined as the lowest value and 100% is the highest value in the dose titration for each antibody.

[3] = molecular target: T2, cynomolgus CD137 on transfected CHO cells (CHO-cyCD137) (cynomolgus (Macaca fascicularis); human); assay: flow cytometry on CHO-cyCD137 cells; 95% confidence interval of the EC50
T2 construct: extracellular domain;domain: transmembrane and intracellular part; also called cyno CD137
Protocol: as §1, §2

[4] = molecular target: T1, human CD137 on transfected CHO cells …; assay: flow cytometry on CHO-huCD137 cells; 95% confidence interval of the EC50; remark: listed apart in the source
Protocol: as §1, §2

[5] = molecular target: T3, human FcγRIIa (R&D Systems #1330-CD-050) (human, UniProt P12318 36-218, limits assumed); assay: Octet (BLI), antibody captured on FAB2G tips, soluble FcγR as analyte, 1:1 model
T3 construct: Soluble analyte in the Octet assay
T3 sequence (looked up): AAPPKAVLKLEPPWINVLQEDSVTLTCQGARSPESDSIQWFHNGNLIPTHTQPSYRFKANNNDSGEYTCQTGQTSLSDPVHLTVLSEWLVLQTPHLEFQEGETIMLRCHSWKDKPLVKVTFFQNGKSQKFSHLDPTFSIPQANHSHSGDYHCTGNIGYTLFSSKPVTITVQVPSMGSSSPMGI
Text: (§3) The processed data was fitted using a 1:1 Langmuir binding model with X² as a measurement of fitting accuracy.

[6] = molecular target: T4, human FcγRIIb (R&D Systems #1460-CD-050) (human, UniProt P31994 46-217, limits assumed); assay: as above
T4 construct: Soluble analyte in the Octet assay
T4 sequence (looked up): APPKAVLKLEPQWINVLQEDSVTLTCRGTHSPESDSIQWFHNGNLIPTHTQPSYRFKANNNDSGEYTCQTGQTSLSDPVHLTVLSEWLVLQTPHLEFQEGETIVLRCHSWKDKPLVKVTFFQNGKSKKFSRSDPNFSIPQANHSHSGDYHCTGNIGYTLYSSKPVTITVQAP
Text: as §3

[7] = molecular target: T2, cynomolgus CD137 on transfected CHO …; assay: flow cytometry on CHO-cyCD137 cells; 95% confidence interval of the EC50; remark: listed apart in the source
[8] = molecular target: T5, 1553: Human CD137 with mouse domains 3A, 3B and 4A (aa 87-133) (human; mouse, UniProt P20334 86-133); assay: flow cytometry on transfected 293-F cells, human/mouse CD137 chimera
T5 construct: domain: domains 3A, 3B and 4A (aa 87-133); Human/mouse chimera transiently expressed on FreeStyle 293-F cells
Protocol: (§4) The ability of each antibody to bind to a panel of human/mouse CD137 chimeras expressed on the surface of transfected cells was analyzed by flow cytometry.
(§5) The chimeras were designed by exchanging domains or modules of the human CD137 with the corresponding mouse domain. Genes of CD137 human/mouse chimeras were synthesized (GenScript) and constructs cloned into pcDNA3.1 vector (Invitrogen) and transiently transfected into FreeStyle 293-F cells (Invitrogen). The transfected cells were incubated with CD137 antibodies and control antibodies, followed by incubation with anti-human IgG-PE (Jackson Immunoresearch) for detection and analyzed with FACS Verse (BD Biosciences). Binding to the different chimeric constructs was calculated as relative MFI compared to the binding of the isotype control, followed by normalization to the full-length human CD137 construct to minimize the effect of affinity differences between individual antibodies.

[9] = molecular target: T6, 1552: Human CD137 with mouse domains 2B, 3A and 3B (aa 64-118) (human; mouse, UniProt P20334 63-117); assay: as above
T6 construct: Human/mouse chimera transiently expressed on FreeStyle 293-F cells
Protocol: as §4, §5

[10] = molecular target: T7, 1550: Human CD137 with mouse domains 1, 2A and 2B (aa 24-86) (human; mouse, UniProt P20334 24-85); assay: as above
T7 construct: domain: domains 1, 2A and 2B (aa 24-86); Human/mouse chimera transiently expressed on FreeStyle 293-F cells; Limits of the human pieces are worked out from the printed aa range
Protocol: as §4, §5

[11] = molecular target: T8, 1554: Human CD137 with mouse domains 3B, 4A and 4B (aa 97-159) (human; mouse, UniProt P20334 96-159); assay: as above
T8 construct: domain: domains 3B, 4A and 4B (aa 97-159); Human/mouse chimera transiently expressed on FreeStyle 293-F cells
Protocol: as §4, §5

[12] = molecular target: T9, 1555: Human CD137 with mouse domains 1 and 4B and region of unknown function (aa 24-46 and aa 139-186) (human; mouse, UniProt P20334 24-45; P20334 139-185); assay: as above
T9 construct: Human/mouse chimera transiently expressed on FreeStyle 293-F cells
Protocol: as §4, §5

[13] = molecular target: T10, 1551: Human CD137 with mouse domains 2A, 2B and 3A (aa 47-96) (human; mouse, UniProt P20334 46-95); assay: as above
T10 construct: domain: domains 2A, 2B and 3A (aa 47-96); Human/mouse chimera transiently expressed on FreeStyle 293-F cells
Protocol: as §4, §5

T2 sequence (P25942 other isoform, or with tags, fused parts or gaps): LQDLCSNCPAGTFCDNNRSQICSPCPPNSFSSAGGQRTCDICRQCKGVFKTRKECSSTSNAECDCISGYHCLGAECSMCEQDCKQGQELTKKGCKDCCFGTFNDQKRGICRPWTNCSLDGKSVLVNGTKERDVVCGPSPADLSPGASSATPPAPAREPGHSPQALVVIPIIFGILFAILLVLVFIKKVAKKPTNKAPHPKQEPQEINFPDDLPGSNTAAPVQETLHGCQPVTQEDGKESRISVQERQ
T1 sequence (P25942 other isoform, or with tags, fused parts or gaps limits assumed): as the sequence (P25942 other isoform, or with tags, fused parts or gaps) above, with L4P, S19N, K50R, I66T, S67P, Y69F, E75G, A149V counted along it
Sequence of cynomolgus CD137 (Acro Biosystems #41B-C52H4) (A9YYE7 entry or part of it): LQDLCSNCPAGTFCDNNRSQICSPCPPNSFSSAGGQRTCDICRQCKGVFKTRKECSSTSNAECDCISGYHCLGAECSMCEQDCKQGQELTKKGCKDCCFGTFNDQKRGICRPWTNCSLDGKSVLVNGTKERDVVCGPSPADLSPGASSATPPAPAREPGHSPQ
T7 sequence (P20334 other isoform, or with tags, fused parts or gaps limits assumed): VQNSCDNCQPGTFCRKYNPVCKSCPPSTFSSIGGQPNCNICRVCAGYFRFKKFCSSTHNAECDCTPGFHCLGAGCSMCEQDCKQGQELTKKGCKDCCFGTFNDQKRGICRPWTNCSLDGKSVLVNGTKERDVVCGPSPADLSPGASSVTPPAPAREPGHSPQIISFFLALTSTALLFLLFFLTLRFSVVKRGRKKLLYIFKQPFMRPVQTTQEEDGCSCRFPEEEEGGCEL
T8 sequence (P20334 other isoform, or with tags, fused parts or gaps limits assumed): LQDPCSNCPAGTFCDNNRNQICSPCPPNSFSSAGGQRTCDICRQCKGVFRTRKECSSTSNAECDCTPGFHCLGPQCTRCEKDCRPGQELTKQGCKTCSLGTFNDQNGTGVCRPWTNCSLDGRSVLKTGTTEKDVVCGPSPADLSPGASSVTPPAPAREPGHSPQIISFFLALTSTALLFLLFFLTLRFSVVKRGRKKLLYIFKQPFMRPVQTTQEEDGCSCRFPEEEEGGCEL
T6 sequence (P20334 other isoform, or with tags, fused parts or gaps limits assumed): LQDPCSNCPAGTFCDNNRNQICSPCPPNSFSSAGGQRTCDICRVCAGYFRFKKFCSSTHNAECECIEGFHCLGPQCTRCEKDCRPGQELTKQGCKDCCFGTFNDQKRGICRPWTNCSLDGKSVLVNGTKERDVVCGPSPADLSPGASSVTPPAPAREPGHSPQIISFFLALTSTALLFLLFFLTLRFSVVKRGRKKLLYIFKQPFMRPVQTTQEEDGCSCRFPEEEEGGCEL
T9 sequence (P20334 other isoform, or with tags, fused parts or gaps limits assumed): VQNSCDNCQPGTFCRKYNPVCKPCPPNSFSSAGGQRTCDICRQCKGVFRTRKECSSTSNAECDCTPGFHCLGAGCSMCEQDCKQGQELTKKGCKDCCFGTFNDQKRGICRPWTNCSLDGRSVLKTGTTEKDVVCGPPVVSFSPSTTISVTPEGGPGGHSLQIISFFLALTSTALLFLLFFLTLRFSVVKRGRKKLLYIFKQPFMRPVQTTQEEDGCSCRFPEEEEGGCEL
T5 sequence (P20334 other isoform, or with tags, fused parts or gaps limits assumed): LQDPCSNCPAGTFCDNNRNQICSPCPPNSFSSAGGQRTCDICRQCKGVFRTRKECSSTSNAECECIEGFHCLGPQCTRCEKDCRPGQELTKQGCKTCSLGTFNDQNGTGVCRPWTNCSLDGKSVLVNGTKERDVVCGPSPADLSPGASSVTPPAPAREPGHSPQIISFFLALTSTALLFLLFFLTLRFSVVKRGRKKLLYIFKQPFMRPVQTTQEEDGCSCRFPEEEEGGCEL
T10 sequence (P20334 other isoform, or with tags, fused parts or gaps limits assumed): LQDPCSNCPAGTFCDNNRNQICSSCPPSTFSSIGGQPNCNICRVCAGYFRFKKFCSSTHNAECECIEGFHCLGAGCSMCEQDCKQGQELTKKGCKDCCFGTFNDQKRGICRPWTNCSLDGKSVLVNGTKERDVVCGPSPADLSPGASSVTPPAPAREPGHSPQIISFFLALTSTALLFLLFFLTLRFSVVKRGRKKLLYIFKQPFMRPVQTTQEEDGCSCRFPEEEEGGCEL

B1: REF2 (antibody)
chain 1: not shown
chain 2: DIVMTQSPDSLSVSLGERATINCRASKSVDSYGNSFMHWYQQKPGQPPKLLIYLASNLESGVPDRFSGSGSGTDFTLTISSLQAEDVAVYYCQQNNEDPRTFGGGTKVEIKRTVAAPSVFIFPPSDEQLKSGTASVVCLLNNFYPREAKVQWKVDNALQSGNSQESVTEQDSKDSTYSLSSTLTLSKADYEKHKVYACEVTHQGLSSPVTKSFNRGEC
Kd [1]: 10 nM | EC50 [2]: 0.21 to 0.31 µg/mL | EC50 [3]: 0.41 to 0.56 nM | EC50 [4]: 0.16 to 0.27 nM | Kd [5]: 587 nM | Kd [6]: 2700 nM | EC50 [7]: 0.13 to 0.24 µg/mL | MFI antibody/isotype control, normalized to full-length human CD137 [8]: 0.17 | MFI antibody/isotype control, normalized to full-length human CD137 [9]: 0.19 | MFI antibody/isotype control, normalized to full-length human CD137 [10]: 0.22 | MFI antibody/isotype control, normalized to full-length human CD137 [11]: 0.16 | MFI antibody/isotype control, normalized to full-length human CD137 [12]: 0.26 | MFI antibody/isotype control, normalized to full-length human CD137 [13]: 0.37
